# Reference: patent publication US12187785B2, “Recombinant protein and fragments thereof, method for producing said recombinant protein, synthetic gene and use of sculptin or recombinant protein for preparing a medicament or pharmaceutical composition for the prophylaxis and/or treatment of thromboembolic diseases or as a direct and specific …” (priority 2017, dated 2025)
# B1: GKPQGHPHDALEARSDAVHTAVPKMPKGGHGGFEPIPIDYDERALEARSDAVHTAVPKMPKGGLGGFEPIPIDYDERALEARSDAVHTAVPKMPKGGHGGFEPIPIDYDERALEARSDAVHTAVPKMPKGGHGGFEPIPIDYDERALHALEHHHHHH (protein)
# chain: GKPQGHPHDALEARSDAVHTAVPKMPKGGHGGFEPIPIDYDERALEARSDAVHTAVPKMPKGGLGGFEPIPIDYDERALEARSDAVHTAVPKMPKGGHGGFEPIPIDYDERALEARSDAVHTAVPKMPKGGHGGFEPIPIDYDERALHALEHHHHHH
# modifications: Sculptin recombinat protein
# notes: recombinant His-tagged protein modified from tick sculptin, expressed in E. coli
# Key:
# [1] = system: isolated human plasma; assay: Activated partial thromboplastin time (aPTT) in isolated human plasma; assay type: biochemical; settings: plasma of healthy human volunteers, incubation 3 min. at 37° C.
# Method: (§1) Plasma was obtained from blood of healthy human volunteer and incubated with different concentrations of recombinant protein. APTT, PT and TT were determined like experimental procedure. (A) Activated partial thromboplastin time (B) prothrombin time and (C) thrombin time. Ctrl is related to plasma and Sal is related to plasma plus saline.
# (§2) Finally, PT, aPTT and TT were assessed in isolated plasma of healthy human volunteers following incubation with recombinant protein for 3 min. at 37° C. […] Maximum test reading for aPTT was achieved following 12 nM, while for PT that was achieved following 6 nM of recombinant protein (FIGS. 11A and 11B).
# [2] = Half-life in plasma ex vivo and in phosphate buffer containing thrombin; assay type: in vitro ADME; settings: plasma ex vivo and phosphate buffer 50 mM with 1 μM thrombin, recombinant protein 10 μM, pH 7.4, 37° C.
# [3] = molecular target: T1, factor Xa (Homo sapiens, UniProt P00742); assay: Degradation of recombinant protein by factor Xa (SDS-PAGE and residual thrombin inhibition); assay type: in vitro ADME; settings: for thrombin inhibition after incubation: diluted to 100 pM
# T1 construct: Serine protease (100 pM; thrombin, plasmin, trypsin or factor Xa) was incubated with recombinant protein; For factor Xa activity, buffer contained phosphatidylserine and phosphatidylcholine 50 μM
# Method: Recombinant protein (10 μM) was incubated with or without serine protease 1 μM (thrombin, plasmin, trypsin or factor Xa) in phosphate buffer 50 mM containing NaCl 150 mM and 0.1% of PEG 6000, pH 7.4 for 4, 6, 7 or 18 h at 37° C. Reaction mixtures (20 μl) were split by SDS-PAGE. (A) hydrolysis SDS-PAGE (15%) of recombinant protein by serine proteases following 6 h of incubation. (B) Percentage of thrombin inhibition by recombinant protein following 6 h of incubation with serine protease (see experimental procedures). (C) hydrolysis SDS-PAGE (15%) of recombinant protein by serine proteases following 18 h of incubation. (D) Percentage of thrombin inhibition by recombinant protein following 18 h of incubation with serine protease (see experimental procedures). Numbering of (B) and (D) corresponds to numbering of (A) and (C), respectively, and recombinant protein control is represented by CTRL. Recombinant protein (strip 1); thrombin (strip 2) and thrombin with recombinant protein (strip 3); plasmin (strip 4) and plasmin with recombinant protein (strip 5); trypsin (strip 6) and trypsin with recombinant protein (strip 7); factor Xa (strip 8) and factor Xa with recombinant protein (strip 9) and protein marker (strip 10; in A). (E) Identification of cleavage sites of thrombin in recombinant protein following 7 h of incubation. (F) Identification of cleavage sites of factor Xa in recombinant protein following 4 h of incubation. Cleavage sites of thrombin and factor Xa in recombinant protein sequence are shown in FIGS. S1 and S2, respectively. Experimental procedure for (C), (D), (E) and (F) was the same as for (A) and (B), except the incubation time and the type of serine protease used. FIG. 5 discloses “GKPQG” as SEQ ID NO: 18, “MPKGG” as SEQ ID NO: 19, and “SDAVH” as SEQ ID NO: 20.
# Afterwards, it was determined whether serine proteases, like thrombin, plasmin, factor Xa and trypsin, hydrolyze recombinant protein. For this purpose, recombinant protein (10 μM) was incubated with or without serine protease 1 μM (thrombin, plasmin, trypsin or factor Xa) in phosphate buffer 50 mM containing NaCl 150 mM and 0.1% of PEG, pH 7.4 for 6 h or 18 h at 37° C. SDS-PAGE of reaction mixture following 6 h of incubation presented that, compared to control strip of recombinant protein, strip intensity of 20-kDa (corresponding to non-digested recombinant protein) decreased and strips of lower molecular weight appeared in recombinant protein incubated by thrombin (FIG. 5A). […] Upon addition of chromogenic substrate S-2238, the hydrolysis thereof by thrombin was monitored in spectrophotometer way. […]
# [4] = molecular target: thrombin (Homo sapiens, UniProt P00734); assay: Incubation without serine protease in phosphate buffer, then thrombin inhibition test; assay type: in vitro ADME; parameters: Brown and cyan colors represent heavy and light chain of thrombin respectively; settings: pH 7.4
# Method: Recombinant protein (10 μM) was incubated with or without serine protease 1 μM (thrombin, plasmin, trypsin or factor Xa) in phosphate buffer 50 mM containing NaCl 150 mM and 0.1% of PEG 6000, pH 7.4 for 4, 6, 7 or 18 h at 37° C. Reaction mixtures (20 μl) were split by SDS-PAGE. (A) hydrolysis SDS-PAGE (15%) of recombinant protein by serine proteases following 6 h of incubation. (B) Percentage of thrombin inhibition by recombinant protein following 6 h of incubation with serine protease (see experimental procedures). (C) hydrolysis SDS-PAGE (15%) of recombinant protein by serine proteases following 18 h of incubation. (D) Percentage of thrombin inhibition by recombinant protein following 18 h of incubation with serine protease (see experimental procedures). Numbering of (B) and (D) corresponds to numbering of (A) and (C), respectively, and recombinant protein control is represented by CTRL. […]
# Afterwards, it was determined whether serine proteases, like thrombin, plasmin, factor Xa and trypsin, hydrolyze recombinant protein. […] Upon addition of chromogenic substrate S-2238, the hydrolysis thereof by thrombin was monitored in spectrophotometer way. […]
# [5] = system: isolated human plasma; assay: Prothrombin time (PT) in isolated human plasma; assay type: biochemical; settings: plasma of healthy human volunteers, incubation 3 min. at 37° C.
# Method: as §1, §2
# [6] = molecular target: T2, plasmin (Homo sapiens, UniProt P00747); assay: Serine protease inhibition test, plasmin (chromogenic substrate); assay type: biochemical; settings: recombinant protein 1, 100, 200 nM; protease 100 pM; 6 h at 37° C.
# T2 construct: Serine protease (100 pM; thrombin, plasmin, trypsin or factor Xa) was incubated with recombinant protein
# Method: (A) Inhibition of serine proteases through recombinant protein. Serine protease (100 pM; thrombin, plasmin, trypsin or factor Xa) was incubated with recombinant protein (1, 100 and 200 nM) in phosphate buffer 50 mM containing NaCl 150 mM and 0.1% of PEG 6000, pH 7.4 for 6 h at 37° C. Following addition of chromogenic substrate corresponding to reaction mixture, hydrolysis thereof was monitored at 405 nm. For factor Xa activity, buffer contained phosphatidylserine and phosphatidylcholine 50 μM. […] (B) Typical curves for hydrolysis of chromogenic substrate S-2238 (15 μM) by thrombin 0.1 nM in absence (trace a) or presence of recombinant protein (trace b, 15 pM; trace c, 30 pM; trace d, 60 pM and trace e, 100 pM) in phosphate buffer 50 mM containing NaCl 150 mM and 0.1% of PEG 6000, pH 7.4 at 37° C. (C) Residual activity of thrombin in presence of increasing concentration of recombinant protein. (D) Dose-response curves for thrombin inhibition by recombinant protein. Percentage of thrombin inhibition was plotted versus the concentration record of recombinant protein. Experimental condition of (C) and (D) is the same as in (B).
# The first performed experiment was the test of serine proteases inhibition through recombinant protein. […] Hydrolysis of a chromogenic substrate through serine proteases in the presence and absence of recombinant protein was monitored in a spectrophotometer way. […]
# T1 sequence (P00742 235-488 limits assumed): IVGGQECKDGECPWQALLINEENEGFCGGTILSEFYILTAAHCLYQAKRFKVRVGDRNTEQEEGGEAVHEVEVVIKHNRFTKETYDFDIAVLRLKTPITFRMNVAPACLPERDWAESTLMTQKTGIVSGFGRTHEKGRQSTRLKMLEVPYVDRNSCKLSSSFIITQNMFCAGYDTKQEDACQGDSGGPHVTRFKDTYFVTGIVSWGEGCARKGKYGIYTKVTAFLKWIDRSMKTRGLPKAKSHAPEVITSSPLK
# T1 sequence (P00742 41-179 limits assumed): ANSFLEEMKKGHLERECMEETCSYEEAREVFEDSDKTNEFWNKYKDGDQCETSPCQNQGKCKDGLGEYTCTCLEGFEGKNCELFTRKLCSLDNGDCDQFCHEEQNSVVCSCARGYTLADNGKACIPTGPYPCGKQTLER
# T2 sequence (P00747 581-810 limits assumed, species assumed): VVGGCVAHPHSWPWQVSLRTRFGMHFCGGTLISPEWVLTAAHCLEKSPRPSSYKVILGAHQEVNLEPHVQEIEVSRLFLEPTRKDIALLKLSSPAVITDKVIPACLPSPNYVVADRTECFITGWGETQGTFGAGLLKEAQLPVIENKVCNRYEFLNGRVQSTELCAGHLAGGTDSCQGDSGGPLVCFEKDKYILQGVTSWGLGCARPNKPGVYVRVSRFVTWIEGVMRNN
# T2 sequence (P00747 97-580 limits assumed, species assumed): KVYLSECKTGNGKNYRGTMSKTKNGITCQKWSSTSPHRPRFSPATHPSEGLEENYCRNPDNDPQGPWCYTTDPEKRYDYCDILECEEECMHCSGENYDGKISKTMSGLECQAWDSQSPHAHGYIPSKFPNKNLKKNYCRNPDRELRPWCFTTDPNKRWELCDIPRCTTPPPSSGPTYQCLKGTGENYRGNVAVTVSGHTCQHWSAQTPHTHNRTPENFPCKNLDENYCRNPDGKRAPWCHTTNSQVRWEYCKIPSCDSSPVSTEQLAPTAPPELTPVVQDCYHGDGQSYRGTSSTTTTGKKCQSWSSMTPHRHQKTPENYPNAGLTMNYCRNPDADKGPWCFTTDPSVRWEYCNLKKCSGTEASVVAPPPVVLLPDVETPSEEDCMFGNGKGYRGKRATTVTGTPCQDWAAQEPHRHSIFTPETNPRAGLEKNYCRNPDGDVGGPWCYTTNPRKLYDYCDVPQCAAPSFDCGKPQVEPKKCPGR
molecule,measurement,setting,value
B1,aPTT,[1],prolonged by recombinant protein in concentration-dependent way
same,concentration at which maximum test reading for aPTT was achieved,[1],12 nM
same,Half-life,[2],8 h
same,"SDS-PAGE, hydrolysis of recombinant protein","[3]; 10 μM protein with 1 μM factor Xa, 6 h at 37° C.",converted the recombinant protein in fragments
same,SDS-PAGE strip of 20-kDa (recombinant protein monomer),"[3]; 10 μM protein with 1 μM factor Xa, 18 h at 37° C.",completely disappeared
same,thrombin inhibition after incubation,"[3]; after 6 h digestion with factor Xa, thrombin 100 pM",retained its thrombin inhibition activity
same,thrombin inhibition after incubation,[3]; after 18 h incubation with factor Xa,even inhibited the thrombin activity
same,thrombin inhibition after incubation without serine protease,"[4]; 6 h at 37° C., control is 100 pM of fresh recombinant protein",inhibited thrombin in similar way to control
same,thrombin inhibition after incubation without serine protease,"[4]; 18 h at 37° C., control of fresh recombinant protein",inhibited thrombin in similar way to control
same,PT,[5],prolonged by recombinant protein in concentration-dependent way
same,concentration at which maximum test reading for PT was achieved,[5],6 nM
same,inhibition of plasmin,[6],did not inhibit
